Patent US20130280162A1

Target: human uPAR on 293/uPAR cells (human) (UniProt Q03405)
Assay: cell-based or functional assay

human uPAR on 293/uPAR cells (human), sequence (Q03405 23-305): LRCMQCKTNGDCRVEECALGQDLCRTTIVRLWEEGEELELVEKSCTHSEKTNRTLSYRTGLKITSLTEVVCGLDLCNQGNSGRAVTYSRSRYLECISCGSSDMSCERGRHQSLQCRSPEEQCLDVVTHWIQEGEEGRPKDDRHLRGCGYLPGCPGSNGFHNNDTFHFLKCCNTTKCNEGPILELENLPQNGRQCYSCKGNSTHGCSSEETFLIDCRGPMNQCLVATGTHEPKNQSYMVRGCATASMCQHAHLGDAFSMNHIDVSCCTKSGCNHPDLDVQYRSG
uPAR-lockV2 (SMB-GFD/hFc, disulphide-linked homodimer) (Fc fusion), sequence (chain): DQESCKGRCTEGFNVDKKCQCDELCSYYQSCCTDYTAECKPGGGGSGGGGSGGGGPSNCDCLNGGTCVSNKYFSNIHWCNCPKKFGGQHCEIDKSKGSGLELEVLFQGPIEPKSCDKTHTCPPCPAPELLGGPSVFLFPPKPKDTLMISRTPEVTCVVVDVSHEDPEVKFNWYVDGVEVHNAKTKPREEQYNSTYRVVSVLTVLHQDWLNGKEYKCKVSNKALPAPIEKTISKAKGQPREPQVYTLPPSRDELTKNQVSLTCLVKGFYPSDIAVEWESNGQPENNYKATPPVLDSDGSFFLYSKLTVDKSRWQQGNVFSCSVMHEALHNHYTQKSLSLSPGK

- IC50, inhibition of 293/uPAR cell adhesion to VN(1-66)/Fc^RAD (RTCA impedance): 0.59 nM
Substance: uPAR-lockV2 (SMB-GFD/hFc, disulphide-linked homodimer) (Fc fusion)
